In patent US6551840B2, “Method of screening TGF-β-inhibiting substances” (Chugai Seiyaku Kabushiki Kaisha, priority 1997, dated 2003):

Experiments:
[1] = tested on: mouse kidney mesangial cell line SV40MES13; assay: Fibronectin EIA in SV40MES13 cells expressing TAK1-DN with or without TGF-β; assay type: cell-based; conditions: 2.5 ng/ml TGF-β, 24 hours; for increase of fibronectin in the culture supernatant by TGF-β addition: control MES/NEO about 3.3 fold; for increase of fibronectin in the extracellular matrix extract by TGF-β addition: control MES/NEO about 3.8 fold
Source text: Then, pTAK1DN or pCOS1 that contains no inserted genes as a control vector was linearized by digesting with a restriction enzyme PvuI. These linearized vectors were introduced by electroporation into human fibroblast-derived HT-1080 (ATCC CCL 121), a mouse kidney mesangial cell line SV40MES13 (ATCC CRL 1927), and a mink pulmonary epithelial cell line Mv1Lu (ATCC CCL 64), and cells into which the gene was introduced were selected using G418 (manufactured by GIBCO-BRL).
The mouse mesangial cell line SV40MES13 (MES/DN3 and MES/DN6) into which pTAK1DN had been introduced and the control cells (MES/NEO) into which pCOS1 containing no inserted genes had been introduced were incubated in a low-serum medium (Medium 199 containing 0.2% FBS) with or without 2.5 ng/ml TGF-β for 24 hours. The amount of fibronectin in the culture supernatant or the extracellular matrix extract prepared using 1 M urea solution was determined by the EIA method as described in Example 7.

[2] = biological target: T1, TAB1 (Homo sapiens, UniProt Q15750); assay: Animal cell 2-hybrid system in CHO cells, luciferase activity; assay type: cell-based; conditions: 72 hours after gene introduction, similar to pM-TAK1 and pVP16-C68
T1 construct: expressed in transfected cells; host or cells: CHO cells
T1 sequence (Q15750 437-504): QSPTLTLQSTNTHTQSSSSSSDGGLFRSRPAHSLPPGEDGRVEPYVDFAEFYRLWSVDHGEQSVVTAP
Procedure: It was analyzed whether a polypeptide (TAK1-DN) comprising Glu at position 77 to Gln at position 303 of the TAK1 polypeptide as set forth in SEQ ID NO: 4 inhibits binding between the TAK1 polypeptide and the TAB1 polypeptide and whether it can inhibit the activation of the TAK1 polypeptide in animal cells by an animal cell 2-hybrid system (Dang et al., (1991) Mol. Cell. Biol. 11, 954-962) using the TAB1 polypeptide and the TAK1 polypeptide.
First, a gene encoding a full-length TAK1 and TAK1-DN and a gene encoding the GAL4 DNA-binding domain (GAL4-BD) were ligated to construct an expression vector. A gene encoding a full-length TAK1 was prepared by digesting yeast 2-hybrid expression plasmid pBTMHu11F (Shibuya H. et al., (1996) 272, 1179-1182) with restriction enzymes EcoRI and PstI, and was then linked to the EcoRI/Pst site of an expression vector pM (manufactured by CLONTECH) containing the GAL4-BD gene, which was termed an animal cell 2-hybrid expression plasmid pM-TAK1. […]
After further incubating for 72 hours, luciferase activity in each cell extract was determined using the Dual-LuciferaseTM Assay System (manufactured by Promega). […] The efficiency of gene introduction was corrected with the measured value of luciferase activity of Renilla by pRL-SV40.

[3] = tested on: Mv1Lu cell; assay: PAI-1 ELISA in culture supernatant of Mv1Lu cells with or without TGF-β1; assay type: cell-based, mink; conditions: Mv1Lu cells with forced expression; 10 ng/ml TGF-β1, 24 hours; control cells about 16-fold
Source text: Accordingly, TAK1DN was subjected to forced expression in the Mv1Lu cell to investigate the effects of TGF-β stimulation on PAI-1 expression. The TAK1DN expression vector used was the above-mentioned TAK1DN, and the TAK1 polypeptide mutant TAK1-K63W expression vector was constructed by inserting a gene (Yamaguchi K. et al., (1995) Science 270, 2008-2011) encoding the TAK1 polypeptide mutant TAK1-K63W in which the lysine residue at position 63 has been replaced with the tryptophan residue at the EcoRI and NotI restriction enzyme site of pCOS1 to give pTAK1K63W.
The Mv1Lu cells into which pTAK1Dn had been introduced (Mv/DN2), the cells into which pTAK1K63W had been introduced (Mv/KN7), and the control cells into which pCOS1 containing no inserted genes (Mv/NEO) had been introduced were each incubated in a low-serum medium (MEM medium containing 0.2% FBS; manufactured by GIBCO-BRL) with or without 10 ng/ml of TGF-β1 for 24 hours. The amount of PAI-1 in the culture supernatant was determined using the PAI-1 Quantative ELISA (manufactured by CALBIOCHEM).

B1: TAK1-DN: polypeptide of Glu at position 77 to Gln at position 303 of TAK1 (SEQ ID NO: 4), the TAB1 binding site; dominant negative inhibitor (protein)
chain: ELRQLSRVNHPNIVKLYGACLNPVCLVMEYAEGGSLYNVLHGAEPLPYYTAAHAMSWCLQCSQGVAYLHSMQPKALIHRDLKPPNLLLVAGGTVLKICDFGTACDIQTHMTNNKGSAAWMAPEVFEGSNYSEKCDVFSWGIILWEVITRRKPFDEIGGPAFRIMWAVHNGTRPPLIKNLPKPIESLMTRCWSKDPSQRPSMEEIVKIMTHLMRYFPGADEPLQYPCQ
B1 was tested. Which “increase of fibronectin in the culture supernatant by TGF-β addition” value ([1]; MED/DN3 cells) did it give?
The value was “about 2.4 fold”.

And the “increase of fibronectin in the extracellular matrix extract by TGF-β addition” value ([1]; MED/DN3 cells)?
Its value is “about 2.6 fold”.

What about the “increase of fibronectin in the culture supernatant by TGF-β addition” value ([1]; MES/DN6 cells) of the same molecule?
Its value is ~2.3 fold.

And the “increase of fibronectin in the extracellular matrix extract by TGF-β addition” value ([1]; MES/DN6 cells)?
Its value is ~2.1 fold.

And the “binding to TAB1: luciferase activity for pM-TAK1DN and pVP16-C68” value [2]?
The value was “binds to TAB1”.

What about the “increase in PAI-1 in the culture supernatant by TGF-β1 addition” value [3] of the same molecule?
Its value is “about 4.3 fold”.
